The values that follow come from publication PMC10001230, “A Role for the V0 Sector of the V-ATPase in Neuroexocytosis: Exogenous V0d Blocks Complexin and SNARE Interactions with V0c” (Cells, 2023).

Where a chain is given by its changes, count along the chain named.

B1: V0c L1.2 peptide (aa 35-KSGTGIAAMSVMRPELIMKS-54) (peptide)
peptide: KSGTGIAAMSVMRPELIMKS
notes: V0c cytosolic loop 1.2; printed as aa 35-54; also called loop 1.2 peptide; free L1.2 peptide; source: synthetic peptide (Genecust)
B2: His6-T7-HSV tagged full-length V0c-subunit (natural protein, rat, UniProt P63081 1-155, looked up)
chain: MADIKNNPEYSSFFGVMGASSAMVFSAMGAAYGTAKSGTGIAAMSVMRPELIMKSIIPVVMAGIIAIYGLVVAVLIANSLTDGITLYRSFLQLGAGLSVGLSGLAAGFAIGIVGDAGVRGTAQQPRLFVGMILILIFAEVLGLYGLIVALILSTK
notes: V-ATPase V0 sector subunit c (V0c), full length; also called HSV-V0c; 6His-V0c; source: E. coli OverExpress C43(DE3), membranes solubilized in 2% FosCholine-12, purified (Ni-NTA)
B3: Full-length V0c-L3.4s mutant (V0c with scrambled loop 3.4) (natural protein, rat, UniProt P63081 1-155, looked up)
chain: B2 chain with V118Q, R119A, G120T, T121V, A122Q, Q123P, Q124L, P125G, L127R
notes: Cloned in pET28 (EcoR1/Sal1); source: E. coli OverExpress C43(DE3), purified (Ni-NTA)
B4: Complexin1-His (natural protein, rat, UniProt P63041 1-134, looked up)
chain: MEFVMKQALGGATKDMGKMLGGDEEKDPDAAKKEEERQEALRQAEEERKAKYAKMEAEREVMRQGIRDKYGIKKKEEREAEAQAAMEANSEGSLTRPKKAIPPGCGDEPEEEDESILDTVIKYLPGPLQDMFKK
notes: also called His-tagged complexin; source: E. coli BL21, purified
B5: Complexin1-GST (natural protein, rat, UniProt P63041 1-134, looked up)
chain: B4 chain
notes: Legends call it GST-complexin although GST stands downstream of complexin in the construct; also called GST-complexin; immobilized complexin; source: E. coli BL21, purified; not shown: GST, C-terminal, kept

Holding throughout (conditions): both partners purified
In the assay “Complexin1-GST” the target is B5. Kind of assay: SPR; competition: V0c 100 nM preincubated or not with L1.2 or L3.4 peptides (10 µM) and injected on immobilized GST-complexin; 25 °C. In general terms: SPR reads the build-up and loss of mass on a sensor chip optically.
In assay [1] the target is T1, GST-V0d1 (rat, UniProt Q5M7T6 1-351).
T1 construct: rat V-ATPase V0 sector subunit d1 (V0d1), amplified from an adult rat brain cDNA library and inserted EcoR1/Sal1 into pGEX-5x-1; the forward primer begins at the codon after the first methionine (SFFPEL), the reverse primer ends at the stop codon; also called immobilized V0d1; source: E. coli BL21, purified (Glutathione-Sepharose)
Kind of assay: SPR; competition: V0c 50 nM injected over immobilized GST-V0d1 in the presence of an excess of GST or GST-complexin, or of L1.2 or L3.4 peptides; GST flow cell subtracted.

For assay [2], the target named is T1, GST-V0d1. Kind of assay: ELISA; V0c, VAMP2, t-SNARE, complexin, trimeric SNARE complex with or without complexin immobilized; GST-V0d1 or GST 50 nM; detected with anti-GST; GST binding subtracted. On the technique in general: ELISA stands for enzyme-linked immunosorbent assay.
Assay [3] concerns the target T1, GST-V0d1. Kind of assay: SPR; GST-V0d1 and GST amine-coupled on consecutive flow cells; V0c (50 nM, with or without 2 µM soluble GST-V0d1), V0c L1.2s or V0c L3.4s injected; 25 °C; GST signal subtracted.
For assay [4], the target named is B2. Kind of assay: ELISA; His-tagged complexin immobilized (1 µg/well); V0c 20 nM with or without VAMP2 100 nM, overnight 4 °C in 50 mM Tris-HCl pH 7.5, 150 mM NaCl, 3% BSA, 0.1% Triton X-100; detected with anti-HSV.
The target of assay [5] is B3. Kind of assay: SPR; Complexin1-GST and GST amine-coupled on the chip; V0c, V0c L1.2s or V0c L3.4s 50 nM injected for 2 min; 25 °C, HBS with or without 0.2% CHAPS; GST signal subtracted.
Assay [6] addresses B2. The assay is described as above.

T1 sequence (Q5M7T6 entry or part of it): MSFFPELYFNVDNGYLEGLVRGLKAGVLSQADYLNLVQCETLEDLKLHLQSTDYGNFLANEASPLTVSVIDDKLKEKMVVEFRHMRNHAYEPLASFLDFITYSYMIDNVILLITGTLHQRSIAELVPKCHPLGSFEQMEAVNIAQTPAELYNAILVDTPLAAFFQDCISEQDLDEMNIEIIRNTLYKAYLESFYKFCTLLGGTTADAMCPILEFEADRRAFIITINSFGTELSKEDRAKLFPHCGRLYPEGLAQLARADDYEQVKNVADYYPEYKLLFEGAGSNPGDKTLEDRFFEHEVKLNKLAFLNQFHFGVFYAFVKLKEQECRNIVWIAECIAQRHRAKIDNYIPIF

On to B1, for which the binding result with Complexin1-GST and with GST-V0d1 [1] was “binds” throughout.
Turning to B2, the binding result in the assay with GST-V0d1 [2] is reported as “binds”.
As to B3, the binding result with GST-V0d1 [3] is recorded as “binds”.
Regarding B4, in assay [4], the binding result was “binds”.
For the molecule B5, the binding result in assay [5] and in assay [6] was “binds” each time.
